Assay results taken from paper PMC13282566, “Regulation of Citron kinase by CDK1 and Aurora B regulates midbody formation and stability” (Journal of Cell Science, 2026).

T1: GST::KIF14(901-1648) (UniProt Q15058 901-1648)
T1 construct: Cloned into pDEST15; source: E. coli, purified (glutathione sepharose 4B), kept on beads; not shown: GST, N-terminal, kept
T1 sequence (looked up): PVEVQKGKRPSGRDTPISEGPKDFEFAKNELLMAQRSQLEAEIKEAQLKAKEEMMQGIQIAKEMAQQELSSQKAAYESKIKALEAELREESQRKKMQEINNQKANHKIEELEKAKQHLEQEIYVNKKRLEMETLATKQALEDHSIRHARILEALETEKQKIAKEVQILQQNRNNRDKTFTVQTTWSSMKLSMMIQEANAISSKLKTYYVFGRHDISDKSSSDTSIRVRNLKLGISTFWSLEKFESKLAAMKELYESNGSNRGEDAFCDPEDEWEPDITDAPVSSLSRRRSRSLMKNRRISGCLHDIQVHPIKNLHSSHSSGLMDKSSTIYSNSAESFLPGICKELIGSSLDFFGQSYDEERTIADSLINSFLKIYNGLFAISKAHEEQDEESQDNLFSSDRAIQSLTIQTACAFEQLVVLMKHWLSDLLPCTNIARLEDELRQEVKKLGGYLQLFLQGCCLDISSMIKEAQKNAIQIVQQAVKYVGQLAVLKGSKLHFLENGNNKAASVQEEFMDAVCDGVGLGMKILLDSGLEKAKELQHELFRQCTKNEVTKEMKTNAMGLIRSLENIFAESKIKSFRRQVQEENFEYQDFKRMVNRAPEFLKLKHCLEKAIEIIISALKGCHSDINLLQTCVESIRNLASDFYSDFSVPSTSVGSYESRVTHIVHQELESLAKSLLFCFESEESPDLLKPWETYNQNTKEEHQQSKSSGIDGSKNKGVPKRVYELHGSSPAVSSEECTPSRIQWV


Columns and labels:
KIF14 901-1648 = KIF14 901-1648 (UniProt Q15058); assay: GST pull-down of MBP-tagged fragment, western blot; details: reference: fragment incubated without CDK1/cyclin B; sites S440
GST::KIF14(901-1648) = target: T1, GST::KIF14(901-1648); assay: pull-down; GST-tagged KIF14 or MKLP1 fragment on glutathione sepharose beads, purified MBP::CIT-K fragment in solution (with or without prior incubation with CDK1/cyclin B or AURKB); NET-N+ buffer (50 mM Tris-HCl pH 7.4, 150 mM NaCl, 5 mM EDTA, 0.2% NP-40), 60 min at 4°C; washes with 250 mM NaCl; western blot; details: both partners purified

| Molecule | binding against the reference (KIF14 901-1648) | binding result (GST::KIF14(901-1648)) |
| --- | --- | --- |
| Citron kinase (CIT-K) 420-585 (from UniProt O14578-4) fragment incubated with CDK1/cyclin B | same |  |
| MBP::CIT-K(420-585) (domain or fragment, human, UniProt O14578-4 420-585, looked up, contains S440; numbering of UniProt O14578-4; Cloned into pKM596; also called MBP::CC1 fragment containing S440; source: E. coli, purified (amylose resin, eluted with maltose)) SYSKALGILGRSESVVSGLDSPAKTSSMEKKLLIKSKELQDSQDKCHKMEQEMTRLHRRVSEVEAVLSQKEVELKASETQRSLLEQDLATYITECSSLKRSLEQARMEVSQEDDKALQLLHDIREQSRKLQEIKEQEYQAQVEEMRLMMNQLEEDLVSARRRSDLY |  | binds |
| MBP::CIT-K(420-585) phosphorylated by CDK1/cyclin B (pS440) (domain or fragment, human, UniProt O14578-4 420-585, looked up, phosphoserine at 440 (in vitro by CDK1/cyclin B, detected with the CIT-K pS440 antibody), numbering of UniProt O14578-4; source: E. coli, purified (amylose resin), then incubated with recombinant CDK1/cyclin B) SYSKALGILGRSESVVSGLDSPAKTSSMEKKLLIKSKELQDSQDKCHKMEQEMTRLHRRVSEVEAVLSQKEVELKASETQRSLLEQDLATYITECSSLKRSLEQARMEVSQEDDKALQLLHDIREQSRKLQEIKEQEYQAQVEEMRLMMNQLEEDLVSARRRSDLY |  | binds |
